Test results: EP3964526A1 (Novartis AG, dated 2022)

Columns and labels:
[1] = target: VEGF (as used in the VEGFR competition ELISA); test: competition ELISA against hVEGR1, EC50 ratio to reference Luc
[2] = target: T1, recombinant human VEGF165 (PeproTech EC Ltd.) (human, UniProt P15692-4 27-191); test: SPR BIAcore T100, hVEGF165 amine-coupled on CM4 chip, scFv as analyte
T1 construct: Amine-coupled to a CM4 sensor chip; also called hVEGF165

[3] = target: VEGF (as used in the VEGFR competition ELISA); test: competition ELISA against hVEGR1, EC50 ratio to reference Luc; first of two values in the cell
[4] = target: VEGF (as used in the VEGFR competition ELISA); test: competition ELISA against hVEGR1, EC50 ratio to reference Luc; second of two values in the cell

VEGF (as used in the VEGFR competition ELISA), sequence (P15692 whole entry): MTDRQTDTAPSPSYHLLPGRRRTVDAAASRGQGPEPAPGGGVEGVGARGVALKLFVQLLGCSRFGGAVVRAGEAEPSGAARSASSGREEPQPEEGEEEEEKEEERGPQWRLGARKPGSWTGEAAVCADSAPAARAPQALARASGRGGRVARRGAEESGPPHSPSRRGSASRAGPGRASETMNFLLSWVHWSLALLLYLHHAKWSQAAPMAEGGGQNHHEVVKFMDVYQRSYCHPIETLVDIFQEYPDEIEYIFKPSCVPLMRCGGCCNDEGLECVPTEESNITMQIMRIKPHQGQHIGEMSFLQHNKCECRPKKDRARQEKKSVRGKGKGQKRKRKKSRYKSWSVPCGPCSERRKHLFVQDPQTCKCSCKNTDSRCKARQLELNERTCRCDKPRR
T1 sequence (P15692 other isoform, or with tags, fused parts or gaps limits assumed): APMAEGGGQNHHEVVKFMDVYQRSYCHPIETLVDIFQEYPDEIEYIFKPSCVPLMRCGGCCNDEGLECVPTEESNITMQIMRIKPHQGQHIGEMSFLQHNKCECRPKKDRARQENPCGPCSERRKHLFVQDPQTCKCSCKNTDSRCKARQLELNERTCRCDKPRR

B1: 567-min (scFv)
chain: EIVMTQSPSTLSASVGDRVIITCQADQSIYIWLSWYQQKPGKAPKLLIYKASTLESGVPSRFSGSGSGAEFTLTISSLQPDDFATYYCQNNAHYSTNGGTFGQGTKLTVLGGGGGSGGGGSGGGGSGGGGSEVQLVESGGGLVQPGGSLRLSCAASGFSLSDYYMCWVRQAPGKGLEWVSCLDYFGSTDDASWAKGRFTISRDNSKNTLYLQMNSLRAEDTAVYYCAKTDDSRGWGLNIWGQGTLVTVSS
Question: What does the source list for B1?
Answer: Rel. activity hVEGR1 comp. ELISA (EC50Luc[nM]/EC50test[nM]) [1]: 57 ratio; Kd [2]: 0.23 nM; koff [2]: 0.000461 s⁻¹; kon [2]: 2.01e+06 M⁻¹ s⁻¹

B2: 509-min (scFv)
chain: EIVMTQSPSTLSASVGDRVIITCQASQNIRIWLSWYQQKPGKAPKLLIYKASTLESGVPSRFSGSGSGAEFTLTISSLQPDDFATYYCQNNAHYSTNGGTFGQGTKLTVLGGGGGSGGGGSGGGGSGGGGSEVQLVESGGGLVQPGGSLRLSCAASGFSLSSYYMCWVRQAPGKGLEWVSCLDYVGDTDYASWAKGRFTISRDNSKNTLYLQMNSLRAEDTAVYYCAKTDDSRGWGLNIWGQGTLVTVSS
Question: Which “Rel. activity hVEGR1 comp. ELISA (EC50Luc[nM]/EC50test[nM])” value (“Rel. activity hVEGR1 comp. ELISA” for short) [1] does the source give for B2 here?
Answer: Its value is 2.9 ratio.

Question: And the Kd [2]?
Answer: Its Kd is 1.82 nM.

Question: And the koff [2]?
Answer: Its koff is 0.00114 s⁻¹.

Question: What about the kon [2] of the same binder?
Answer: Its kon is 623000 M⁻¹ s⁻¹.

B3: 567-max (scFv)
chain: EIVMTQSPSTLSASVGDRVIITCQADQSIYIWLSWYQQKPGKAPKLLIYKASTLESGVPSRFSGSGSGTQFTLTISSLQPDDFATYYCQNNAHYSTNGGTFGQGTKLTVLGGGGGSGGGGSGGGGSGGGGSEVQLVESGGGLVQPGGSLRLSCSVSGFSLSDYYMCWVRQAPGKGLEWVGCLDYFGSTDDASWAKGRFTISKDTSKNTVYLQMNSLRAEDTAVYYCARTDDSRGWGLNIWGQGTLVTVSS
Question: With B3 as the binder, how does the Kd [2] read?
Answer: The Kd was 0.188 nM.

Question: And the koff [2]?
Answer: The koff was 0.000226 s⁻¹.

Question: What about the kon [2] of the same binder?
Answer: Its kon is 1.2e+06 M⁻¹ s⁻¹.

Question: And the “Rel. activity hVEGR1 comp. ELISA” value [3]?
Answer: Its value is 15.7 ratio.

Question: And the “Rel. activity hVEGR1 comp. ELISA” value [4]?
Answer: Its value is 54.5 ratio.

B4: 578-min (scFv)
chain: EIVMTQSPSTLSASVGDRVIITCQASEIIHSWLAWYQQKPGKAPKLLIYLASTLASGVPSRFSGSGSGAEFTLTISSLQPDDFATYYCQNVYLASTNGANFGQGTKLTVLGGGGGSGGGGSGGGGSGGGGSEVQLVESGGGLVQPGGSLRLSCAASGFSLTDYYYMTWVRQAPGKGLEWVSFIDPDDDPYYATWAKGRFTISRDNSKNTLYLQMNSLRAEDTAVYYCAKGDHNSGWGLDIWGQGTLVTVSS
Question: How did the “Rel. activity hVEGR1 comp. ELISA” value [1] turn out when B4 was run?
Answer: The value was 4.8 ratio.

Question: And the Kd [2]?
Answer: Its Kd is 9.01 nM.

Question: And the koff [2]?
Answer: The koff was 0.0103 s⁻¹.

Question: And the kon [2]?
Answer: Its kon is 1.14e+06 M⁻¹ s⁻¹.

B5: 511-min (scFv, V domains shown)
VH: EVQLVESGGGLVQPGGSLRLSCAASGFSLNTYYMNWVRQAPGKGLEWVSIIAPDDTTYYASWAKSRFTISRDNSKNTLYLQMNSLRAEDTAVYYCAKSGDTTAWGADIWGQGTLVTVSS
VL: EIVMTQSPSTLSASVGDRVIITCQASQSINIWCSWYQQKPGKAPKLLIYRASTLASGVPSRFSGSGSGAEFTLTISSLQPDDFATYYCQANYAYSAGYGAAFGQGTKLTVL
Question: Which results are given for B5?
Answer: Rel. activity hVEGR1 comp. ELISA (EC50Luc[nM]/EC50test[nM]) [1]: 0.7 ratio; Kd [2]: 2.53 nM; koff [2]: 0.00128 s⁻¹; kon [2]: 505000 M⁻¹ s⁻¹

B6: 511-max (scFv)
chain: EIVMTQSPSTLSASVGDRVIITCQASQSINIWLSWYQQKPGKAPKLLIYRASTLASGVPSRFSGSGSGTEFTLTISSLQPDDFATYYCQANYAYSAGYGAAFGQGTKLTVLGGGGGSGGGGSGGGGSGGGGSEVQLVESGGGLVQPGGSLRLSCTVSGFSLNTYYMNWVRQAPGKGLEWVGIIAPDDTTYYASWAKSRSTISRDTSKNTVYLQMNSLRAEDTAVYYCARSGDTTAWGADIWGQGTLVTVSS
Question: What does the source list for B6?
Answer: Rel. activity hVEGR1 comp. ELISA (EC50Luc[nM]/EC50test[nM]) [1]: 8 ratio; Kd [2]: 0.0667 nM; koff [2]: 4.4e-05 s⁻¹; kon [2]: 659000 M⁻¹ s⁻¹
